Here are results for 1 protein from paper doi:10.1101/2021.01.25.428038 (bioRxiv, 2021).

This data set concerns the molecule itself. Description: bead aggregation assay.

B1: hTMIGD1-Fc (extracellular domain of hTMIGD1, AA 1-222, fused to the Fc-part of human IgG) (Fc fusion)
chain: VLTVNGKTENYILDTTPGSQASLICAVQNHTREEELLWYREEGRVDLKSGNKINSSSVCVSSISENDNGISFTCRLGRDQSVSVSVVLNVTFPPLLSGNDFQTVEEGSNVKLVCNVKANPQAQMMWYKNSSLLDLEKSRHQIQQTSESFQLSITKVEKPDNGTYSCIAKSSLKTESLDFHLIVKDKTVGVPIE
Turning to B1, the binding result is “binds”.
